Assay results: article PMC12827327

How the values were obtained:
[1] = molecular target: actin filament (F-actin) of chicken skeletal α-actin, pointed end (chicken) (UniProt P68139)
[2] = molecular target: actin filament (F-actin) of chicken skeletal α-actin, pointed end (chicken) (UniProt P68139); remark: listed apart in the source
[3] = molecular target: actin filament (F-actin) of chicken skeletal α-actin, pointed end (chicken) (UniProt P68139); remark: listed apart in the source
[4] = molecular target: actin filament (F-actin) of chicken skeletal α-actin, pointed end (chicken) (UniProt P68139); experiment: pyrene-actin pointed end elongation assay; apparent KD from inhibition of pointed end elongation; 0.8 µM F-actin seeds with 8 nM capping protein incubated with the titrated protein, 2 µM G-actin (8% pyrene-labeled) added; 10 mM HEPES pH 7.4, 50 mM KCl, 1 mM MgCl2, 1 mM EGTA; hyperbolic fit of normalized rates
[5] = molecular target: actin filament (F-actin) of chicken skeletal α-actin, pointed end (chicken) (UniProt P68139); experiment: pyrene-actin dilution-induced pointed end depolymerization assay; apparent KD from inhibition of pointed end depolymerization; 10 µM CP-capped pyrene F-actin (20% labeled) incubated with the protein 15 min on ice, diluted to 0.5 µM; hyperbolic fit of normalized rate constants

Sequence of human SH3BGRL-3 (Q9H299 whole entry): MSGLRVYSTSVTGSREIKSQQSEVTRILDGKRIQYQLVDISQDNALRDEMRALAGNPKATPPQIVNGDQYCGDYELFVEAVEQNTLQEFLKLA
Sequence of human SH3BGRL (O75368 whole entry): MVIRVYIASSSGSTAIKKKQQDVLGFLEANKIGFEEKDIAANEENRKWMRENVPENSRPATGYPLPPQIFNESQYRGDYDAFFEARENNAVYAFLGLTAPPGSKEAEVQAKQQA
Sequence of human tropomodulin-3 (Q9NYL9 whole entry): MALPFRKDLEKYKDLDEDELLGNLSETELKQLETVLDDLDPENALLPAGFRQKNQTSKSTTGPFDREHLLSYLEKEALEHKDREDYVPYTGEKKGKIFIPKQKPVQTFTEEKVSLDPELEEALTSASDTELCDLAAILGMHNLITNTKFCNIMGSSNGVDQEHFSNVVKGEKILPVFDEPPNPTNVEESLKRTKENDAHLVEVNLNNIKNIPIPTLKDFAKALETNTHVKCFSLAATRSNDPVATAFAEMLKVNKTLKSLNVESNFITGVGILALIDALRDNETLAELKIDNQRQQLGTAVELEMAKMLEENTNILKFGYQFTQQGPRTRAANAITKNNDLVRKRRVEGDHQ

## human SH3BGRL-3 (from UniProt Q9H299 1-93) (natural protein)
[1]
  apparent rate of filament nucleation knuc, TIRFM, 1 µM ATTO-488 α-actin, 0.5-5 µM SH3BGRL-3 (actin only: 5.1 × 10^-6): 3.42e-05 µm^-2 s^-1
[2]
  pyrene-actin bulk polymerization from 2 µM α-actin (5% pyrene-labeled), increasing SH3BGRL-3: increase of the net polymerization rate: < 3 fold
[3]
  concentration required for half-maximal inhibition of pointed end depolymerization (K50%), CP-capped pyrene F-actin: 7.7 µM
[4]
  Kd: 31 nM

## human tropomodulin-3 (from UniProt Q9NYL9 1-352) (natural protein)
[5]
  Kd: 130 nM
[4]
  Kd: 180 nM

## human SH3BGRL (from UniProt O75368 1-114) (natural protein)
[1]
  apparent rate of filament nucleation knuc, TIRFM, 1 µM ATTO-488 α-actin, 1-5 µM SH3BGRL (actin only: 5.1 × 10^-6): 2.22e-05 µm^-2 s^-1
[2]
  pyrene-actin bulk polymerization from 2 µM α-actin (5% pyrene-labeled), increasing SH3BGRL: increase of the net polymerization rate: < 3 fold
[3]
  concentration required for half-maximal inhibition of pointed end depolymerization (K50%), CP-capped pyrene F-actin: 7.6 µM
[4]
  Kd: 85 nM
